Values of other authors as cited in US20100311759A1, “ANTIPARASITIC AGENT FOR FISH AND METHOD OF CONTROLLING PROLIFERATION OF FISH PARASITES” (NIPPON SUISAN KAISHA, LTD., priority 2007, published 2010).

Tested on: White spot disease
Settings: 40 mg per 1 kg of fish body weight orally per day, 28-day experimental period

B1: lactoferrin: marketed as an additive for fisheries; thought to increase non-specific biophylactic ability of host fish (protein, UniProt P24627 20-708, looked up)
Lactotransferrin: APRKNVRWCTISQPEWFKCRRWQWRMKKLGAPSITCVRRAFALECIRAIAEKKADAVTLDGGMVFEAGRDPYKLRPVAAEIYGTKESPQTHYYAVAVVKKGSNFQLDQLQGRKSCHTGLGRSAGWIIPMGILRPYLSWTESLEPLQGAVAKFFSASCVPCIDRQAYPNLCQLCKGEGENQCACSSREPYFGYSGAFKCLQDGAGDVAFVKETTVFENLPEKADRDQYELLCLNNSRAPVDAFKECHLAQVPSHAVVARSVDGKEDLIWKLLSKAQEKFGKNKSRSFQLFGSPPGQRDLLFKDSALGFLRIPSKVDSALYLGSRYLTTLKNLRETAEEVKARYTRVVWCAVGPEEQKKCQQWSQQSGQNVTCATASTTDDCIVLVLKGEADALNLDGGYIYTAGKCGLVPVLAENRKSSKHSSLDCVLRPTEGYLAVAVVKKANEGLTWNSLKDKKSCHTAVDRTAGWNIPMGLIVNQTGSCAFDEFFSQSCAPGADPKSRLCALCAGDDQGLDKCVPNSKEKYYGYTGAFRCLAEDVGDVAFVKNDTVWENTNGESTADWAKNLNREDFRLLCLDGTRKPVTEAQSCHLAVAPNHAVVSRSDRAAHVKQVLLHQQALFGKNGKNCPDKFCLFKSETKNLLFNDNTECLAKLGGRPTYEEYLGTEYVTAIANLKKCSTSPLLEACAFLTR
- infection: no infection was observed
